The labels stand for the following.
B1: PcOxP_DB01_F11 (human IgG1) (antibody, V domains shown)
VH: EVQLLESGGGLVQPGGSLRLSCAASGFTFSSYYMEWVRQAPGKGLEWVAASRNKANDYTTEYADSVKGRFTISRDNSKNTLYLQMNSLRAEDTAVYYCARDYYGSSYWYYDVWGQGTLVTVSS
VL: DIVMTQSPDSLAVSLGERATINCTASESLYSSKHKVHYLAWYQQKPGQPPKLLIYGASNRYIGVPDRFSGSGSGTDFTLTISSLQAEDVAVYYCAQFYSYPLTFGGGTKVEIK
B2: PcOxP_DB02_B04 (human IgG1) (antibody, V domains shown)
VH: B1 VH with S31D, A55W, Y110F
VL: B1 VL
B3: PcOxP_DB01_F06 (human IgG1) (antibody, V domains shown)
VH: B1 VH with F27D, S31D, Y32F, Y110F
VL: B1 VL with T24K, A25S, E27Q, S31Y, K33S, H34N, V36K, H37N, I62G, S99R
B4: PcOxP_DB03_A09 (human IgG1) (antibody, V domains shown)
VH: B1 VH with S31D, Y110F
VL: DIQMTQSPSSLSASVGDRVTITCTASESLYSSKHKVHYLAWYQQKPGKAPKLLIYGASNRGIGVPSRFSGSGSGTDFTLTISSLQPEDFATYYCAQFYSYPLTFGGGTKVEIK
B5: PcOxP_DB03_G12 (human IgG1) (antibody, V domains shown)
VH: B1 VH with S31D, A55Y, Y110F
VL: B1 VL with T24K, A25S, L29V, V36K
B6: PcOxP_DB03_G07 (human IgG1) (antibody, V domains shown)
VH: B1 VH with S31D, Y32H, S105Q, Y110F
VL: B4 VL with G61Y
B7: PcOxP_DB02_C01 (human IgG1) (antibody, V domains shown)
VH: B1 VH with S31D, Y32A, Y110F
VL: B4 VL with G61Y
B8: PcOxP_DB04_G01 (human IgG1) (antibody, V domains shown)
VH: B1 VH with S31D, A55W, G104L, Y110F
VL: B1 VL with T24K, E27Q, L29V, Y30L, H34N, K35N, H37N, S99Q
B9: PcOxP_DB02_F10 (human IgG1) (antibody, V domains shown)
VH: B1 VH with S31D, Y32Q, Y110F
VL: B1 VL with A25S, E27Q, L29V, Y30L, K35N, V36K, H37N, I62W
B10: PcOxP_DB02_A06 (human IgG1) (antibody, V domains shown)
VH: B1 VH with S31D, Y32Q, Y110F
VL: B4 VL with A57L, G61Y
B11: PcOxP_DB01_H04 (human IgG1) (antibody, V domains shown)
VH: B1 VH with T28A, S31D, Y32F, S106H, Y110F
VL: B4 VL with R60L, G61Q, I62S, S99Y
B12: PcOxP_DB03_E01 (human IgG1) (antibody, V domains shown)
VH: B1 VH with S31D, T60V, Y110F
VL: B4 VL with A57T, G61Y, S99E
B13: PcOxP_DB03_B09 (human IgG1) (antibody, V domains shown)
VH: B1 VH with Y110F
VL: B1 VL with S58A
B14: PcOxP_DB04_A04 (human IgG1) (antibody, V domains shown)
VH: B1 VH with S31D, Y32F, A55W, Y110F
VL: B1 VL with E27Q, L29V, H34N, V36K, S99R
B15: PcOxP_DB04_A09 (human IgG1) (antibody, V domains shown)
VH: B1 VH with S31D, A55W, Y110F
VL: B4 VL with S26E, R60L, G61Y, I62S
B16: PcOxP_DB03_C12 (human IgG1) (antibody, V domains shown)
VH: B1 VH with S31D, Y110F
VL: B4 VL with G61Y, I62G
B17: PcOxP_DB02_C09 (human IgG1) (antibody, V domains shown)
VH: B1 VH with S31D, Y32A, Y110F
VL: B4 VL with S58G, G61Y, S99F
B18: PcOxP_DB01_F04 (human IgG1) (antibody, V domains shown)
VH: B1 VH with A55Y, Y110F
VL: B4 VL with S58V, G61Y, S99R
B19: PcOxP_DB04_E08 (human IgG1) (antibody, V domains shown)
VH: B1 VH with F29S, S31D, Y32F, M34L, A55W, Y110F
VL: B1 VL with A57V
B20: PcOxP_DB01_H02 (human IgG1) (antibody, V domains shown)
VH: B1 VH with Y110F
VL: B1 VL with E27S
B21: PcOxP_DB03_D08 (human IgG1) (antibody, V domains shown)
VH: B1 VH with T28W, S31D, Y32F, S106A, Y110F
VL: B4 VL with G61Y
B22: PcOxP_DB02_H07 (human IgG1) (antibody, V domains shown)
VH: B1 VH with Y110F
VL: B1 VL with I62N, S99T
B23: PcOxP_DB03_G11 (human IgG1) (antibody, V domains shown)
VH: B1 VH with Y110F
VL: B1 VL with T24K, A25S, E27Q, L29V, Y30L, V36K, H37N
B24: PcOxP_DB02_G04 (human IgG1) (antibody, V domains shown)
VH: B1 VH with S31D, N53W, Y110F
VL: B1 VL with T24K, E27Q, L29V, Y30L, S31Y, H34N, V36K, Y61Q, S99V
B25: PcOxP_DB03_C03 (human IgG1) (antibody, V domains shown)
VH: B1 VH with S31D, Y32F, A55Y, Y110F
VL: B4 VL with G61Y
B26: PcOxP_DB02_A05 (human IgG1) (antibody, V domains shown)
VH: B1 VH with F29G, S31D, Y32F, A55W, Y110F
VL: B1 VL with S58G
B27: PcOxP_DB03_G03 (human IgG1) (antibody, V domains shown)
VH: B1 VH with F29S, S31D, Y32F, Y110F
VL: B4 VL with E27Q, L29I, Y30S, R60H, G61Y
B28: PcOxP_DB01_B06 (human IgG1) (antibody, V domains shown)
VH: B1 VH with A55Y, Y107T, Y110F
VL: B1 VL
B29: PcOxP_DB01_H08 (human IgG1) (antibody, V domains shown)
VH: B1 VH with F29H, S31D, Y32F, Y110F
VL: DIQMTQSPSSLSASVGDRVTITCRASESISSSKHKHYLAWYQQKPGKAPKLLIYGASNRYIGVPSRFSGSGSGTDFTLTISSLQPEDFATYYCAQFYVYPLTFGGGTKVEIK
B30: PcOxP_DB03_H03 (human IgG1) (antibody, V domains shown)
VH: B1 VH with F29G, S31D, Y32F, A55W, Y110F
VL: B29 VL with R24T, I29L, N58S, I61S, V98S
B31: PcOxP_DB04_G11 (scFv) (scFv, V domains shown)
VH: B1 VH with S31D, Y32H, N53W, Y110F
VL: B1 VL with R60T

Substitutions are numbered along the chain they refer to.

The EC50 is the concentration at which the effect is half-maximal. Read a high EC50 as a less potent agent.

One assay deals with PC-BSA. Put plainly: ELISA (DELFIA TRF), PC-BSA coated, titrated IgG1. On the technique in general: An ELISA detects its analyte on a solid surface through an enzyme-linked reagent.
Chain of PC-BSA (P02769 25-607 limits assumed, form in doubt): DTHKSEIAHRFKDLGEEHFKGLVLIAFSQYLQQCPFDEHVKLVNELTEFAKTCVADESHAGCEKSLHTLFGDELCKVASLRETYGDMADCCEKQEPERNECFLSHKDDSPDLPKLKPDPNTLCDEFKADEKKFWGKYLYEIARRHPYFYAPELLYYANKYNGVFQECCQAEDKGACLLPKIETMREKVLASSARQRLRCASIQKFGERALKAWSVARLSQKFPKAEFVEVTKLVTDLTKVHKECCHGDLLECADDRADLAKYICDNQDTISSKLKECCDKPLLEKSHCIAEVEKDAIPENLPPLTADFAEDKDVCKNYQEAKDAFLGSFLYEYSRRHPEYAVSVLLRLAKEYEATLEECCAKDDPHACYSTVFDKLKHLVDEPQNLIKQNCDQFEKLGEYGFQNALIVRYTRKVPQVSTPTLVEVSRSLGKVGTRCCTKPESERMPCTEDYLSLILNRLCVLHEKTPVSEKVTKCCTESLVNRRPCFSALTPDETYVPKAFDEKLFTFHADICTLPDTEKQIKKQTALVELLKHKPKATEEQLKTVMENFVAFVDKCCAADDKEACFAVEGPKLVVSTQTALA
B1 showed an EC50 of 244 pM.
The same measure, in the same setting: next, B2: 278 pM; B3: 216 pM; B4: 664 pM.
Same read-out and setting: next, B5: 557 pM.
The same measure, in the same setting: next, B6: 636 pM.
With B7, the EC50 was determined as 640 pM.
Same read-out and setting: next, B8: 257 pM; B9: 659 pM; B10: 643 pM.
Same read-out and setting: next, B11: 456 pM; B12: 857 pM; B13: 426 pM.
Still for that read-out and setting: next, B14: 294 pM.
For the molecule B15, the EC50 was 269 pM.
Still for that read-out and setting: next, B16: 436 pM; B17: 394 pM.
Same read-out and setting: next, B18: 344 pM.
Still for that read-out and setting: next, B19: 251 pM; B20: 430 pM; B21: 401 pM.
B22 returned an EC50 of 423 pM. The EC50 values of the last two molecules are within 1.5-fold of each other.
In turn, B23 yielded an EC50 of 244 pM.
Same read-out and setting: next, B24: 231 pM; B25: 339 pM.
On the same count and under the same terms, next, B26: 264 pM; B27: 216 pM.
On the same count and under the same terms, next, B28: 219 pM.
Take B29: the EC50 was determined as 244 pM.
With B30, the EC50 worked out at 229 pM.

The next assay deals with BSA (UniProt P02769). Briefly: scFv ELISA, periplasmic extract on coated BSA, anti-V5-HRP detection.
Chain of BSA (P02769 25-607 limits assumed): as the sequence (P02769 25-607 limits assumed, form in doubt) above
Turning to B31, the OD450 was determined as 0.07 OD450.

(Values after patent publication US20250320312A1 (OXITOPE PHARMA B V, published 2025).)
